Key:
[1] = tested on: (CGG)60-Spinach2 foci; experiment: Effects of drugs on CGG RNA foci in COS-7 cells expressing (CGG)60-Spinach2; type: cell-based
Description: Transfection of COS-7 Cells and Live Cell Imaging: COS-7 cells (ATCC-CRL-1651) were cultured and passaged in DMEM supplemented with 50 units of penicillin and 50 μg of streptomycin per milliliter. For imaging experiments, cells were grown on cells cultured on 24-well glass-bottom dishes and transfected with 0.6 μg of pCDNA-60CGG-Spinach or pCDNA-60CGG-Spinach2 using FuGeneHD (Roche) per the manufacturer's instructions in DMEM medium lacking penicillin and streptomycin. Cells were imaged in CO2-independent medium (Invitrogen) supplemented with L-glutamine. At 30 min-1 h before imaging, medium was supplemented with 25 mM HEPES, 5 mM MgSO4, 1 μg/ml Hoechst 33342 (when appropriate) and 20 μM DFHBI or vehicle. Live fluorescence images were acquired in a temperature-controlled chamber at 35-37° C. with a CoolSnap HQ2 CCD camera through a 60× oil objective (Plan Apo 1.4 numerical aperture (NA)) mounted on a Nikon TE2000 epifluorescence microscope and analyzed with the NIS-Elements software. Spinach was imaged with a filter cube typically used for fluorescein or EGFP, with a sputter-coated excitation filter 470/40 nm, dichroic mirror 495 nm (long-pass), and emission filter 525/50 (Chroma Technology). DsRed-Max and mCherry were imaged using a filter cube typically used for Texas Red, with a sputter coated excitation filter 560/40 nm and emission filter 630/75 nm (Chroma Technology). Background intensity was subtracted from all pixel intensity measurements. Image analyses were completed with NIS-Elements AR 3.2 (Nikon). Drug treatments were carried out as specified. Tautomycin was used at a final concentration of 5 μM in all cases. 1a was used at a final concentration 20 μM in all cases. DMSO was added to a final concentration of 0.1% for vehicle treatments.

[2] = taken from Song et al.; cited from earlier work
[3] = Folding assay (fraction of RNA folded, DFHBI); type: physicochemical
Description: Folding Assay: The folding assay involves measurement of fluorescence under two conditions, one in which RNA is in excess relative to DFHBI, and one in which the DFHBI is in excess relative to RNA. As Spinach and DFHBI form a 1:1 stoichiometric complex, the maximum amount of complex that can be formed is determined by the limiting component. In the first condition, the fluorescence was determined by incubation of 0.1 μM DFHBI and 100-fold excess (10 μM) Spinach. This value was used to define the fluorescence of 0.1 μM Spinach-DFHBI complex. It was assumed that even if nearly all Spinach is misfolded or unfolded, there will be enough properly folded Spinach to stoichiometrically bind 0.1 μM DFHBI. This was confirmed by measuring fluorescence after doubling the RNA to 20 μM, which caused no increase in fluorescence. In the second condition, the fluorescence obtained using 10 μM DFHBI and 0.1 μM Spinach was measured. In theory, up to 0.1 μM Spinach-DFHBI can form if all the Spinach is folded. However, if a portion of Spinach is unfolded, the fluorescence will be proportionately less than the fluorescence of 0.1 μM Spinach-DFHBI. Thus, this approach can reveal the fraction of Spinach that is folded under diverse conditions.
Fluorescence was measured for each RNA under the following conditions: (i) 0.1 μM RNA and 10 μM DFHBI, and (ii) 0.1 μM DFHBI and 10 μM RNA. For each condition, the signal from DFHBI without RNA was subtracted from each signal. Fluorescence was measured in 20 mM HEPES pH 7.4, 100 mM KCl and 1 mM MgCl2 at the designated temperature. Fluorescence measurements were performed using a PerkinElmer LS-55 fluorescence spectrometer using the following instrument parameters: excitation wavelength, 460 nm; emission wavelength, 501 nm; slit widths, 10 nm. Signal from the first condition (limiting RNA) was divided by the signal from the second condition (limiting dye) to determine the fraction folded.

[4] = In vitro fluorescence (brightness) of Spinach RNAs, mutants and flanked/fused constructs with DFHBI; type: biochemical; conditions: for Percent Brightness (at 42° C.): percent of signal remaining at 42 °C for a given mutant; for Relative Brightness (at 25° C.): relative to Spinach
Source text: Preparation and Analysis of Spinach and Spinach Mutants: RNAs were created by using the appropriate single-stranded DNA templates (Integrated DNA Technologies) and PCR amplification using primers that included a 5′ T7 promoter sequence to generate double-stranded DNA templates. PCR products were then purified with PCR purification columns (Qiagen) and used as templates for in vitro T7 transcription reactions (Epicentre) as described previously (Paige et al., “RNA mimics of green fluorescent protein,” Science 333: 642-646 (2011), which is hereby incorporated by reference in its entirety). RNA was purified using ammonium acetate precipitation, and quantified using both absorbance values and the Riboquant Assay kit (BD Biosciences). Photophysical characterization of Spinach2 was carried out as previously described (Paige et al., “RNA mimics of green fluorescent protein,” Science 333: 642-646 (2011), which is hereby incorporated by reference in its entirety).
Preparation and In Vitro Analysis of Flanked Spinach and Spinach2 Constructs: Spinach and Spinach2 constructs flanked on either side by 50 base pairs were generated by PCR. For Spinach, the following primers were used:
The 50-base-pair sequences were taken from the human β-actin 3′ untranslated region. Both forward primers encode the T7 RNA polymerase promoter for in vitro transcription. 5S-Spinach and 5S-Spinach2 were amplified by PCR from pAV-5S-Spinach and pAV-5S-Spinach2, respectively, using the following primers: […]
PCR products were used as templates for in vitro transcription by Ampliscribe T7 RNA polymerase as previously described (Paige et al., “RNA mimics of green fluorescent protein,” Science 333: 642-646 (2011), which is hereby incorporated by reference in its entirety). Fluorescence measurements were recorded for 0.1 μM RNA in the presence of 10 μM DFHBI in buffer composed of 20 mM HEPES pH 7.4, 100 mM KCl and […] as described above.
Next, systematic mutagenesis was carried out to identify thermostable Spinach mutants with improved folding. Because elevated G+C content can lead to stable misfolded structures (Kiliszek et al., “Crystal Structures of CGG RNA Repeats with Implications for Fragile X-Associated Tremor Attaxia Syndrome,” Nuc. Acids Res. 39:7308-7315 (2011); Sobczak et al., “RNA Structure of Trinucleotide Repeats Associated with Human Neurological Diseases,” Nuc. Acids Res. 31:5469-5482 (2003), each of which is hereby incorporated by reference in its entirety), it was reasoned that decreasing the overall G+C content could promote proper folding. Scanning mutagenesis was carried out, mutating every […] and cytosine to adenosine or uracil, respectively. In regions where G and C residues were predicted to form a base pair, both residues were mutated to A and U, to maintain the complementarity. Each of these 35 mutants was synthesized in vitro, and the fraction folded was measured at 25° C. and 42° C. Fluorescence signals that were equal to or greater than Spinach at 25° C. indicated equal or greater percent folded. A higher percentage signal at 42° C. indicated improved thermostability relative to Spinach.

[5] = Thermostability measurements of Spinach RNAs with DFHBI; type: physicochemical; conditions: fluorescence of RNA-DFHBI complex in vitro, 20-60 °C; ±s.e.m.
Description: Thermostability Measurements: Spinach or Spinach2 (1 μM) was incubated in 20 mM HEPES pH 7.4, 100 mM KCl, 1 mM MgCl2 and 10 μM DFHBI. Fluorescence values were recorded in 1° C. increments from 20° C. to 60° C., with a 5-min incubation at each temperature to allow for equilibration. Fluorescence measurements were performed using a PerkinElmer LS-55 fluorescence spectrometer using the following instrument parameters: excitation wavelength, 460 nm; emission wavelength, 501 nm; slit widths, 10 nm. Curves were fitted using the Boltzmann sigmoidal equation in GraphPad Prism 5 software. Values presented are mean and s.e.m. from three independent measurements.

CO[C@H]([C@H](O)CC(=O)[C@@H](C)[C@@H](O)CC[C@@H](C)[C@@H]1O[C@]2(CC[C@@H](C)[C@H](CC[C@H](C)C(C)=O)O2)CC[C@@H]1C)[C@H](OC(=O)C[C@@H](O)C1=C(C)C(=O)OC1=O)C(C)C [tautomycin]
time to disaggregation of existing foci ([1]; 5 μM): 1 h | effect on formation of (CGG)60-Spinach2 foci ([1]; 20 μM 1a or 5 μM tautomycin): prevented formation of (CGG)60-Spinach2 foci | nuclei containing foci ([1]; 24 h treatment, 20 μM 1a or 5 μM tautomycin, ±s.e.m.): 12±4.2%

CC1=N/C(=C\c2cc(F)c(O)c(F)c2)C(=O)N1CC(F)(F)F [DFHBI-1T]
Abs max [2]: 423 nm | Brightness [2]: 0.12 | Em max [2]: 495 nm | Ex max [2]: 426 nm | Ext. coeff. [2]: 35,400 M^−1cm^−1 | Quantum yield [2]: 0.00098

C=C1[C@@H](O)[C@@H]2O[C@]3(CC[C@H](/C=C/[C@@H](C)[C@@H]4CC(C)=C[C@@]5(O[C@H](C[C@@](C)(O)C(=O)O)CC[C@H]5O)O4)O3)CC[C@H]2O[C@@H]1[C@@H](O)C[C@H](C)[C@H]1O[C@@]2(CCCCO2)CC[C@H]1C [okadaic acid]
disruption of existing foci ([1]; 1a: imaging every 5 min for 2 h, okadaic acid: over 4 h): No disruption of foci

B1: Spinach: RNA aptamer binding DFHBI, SEQ ID NO: 1 (nucleic acid)
chain: GACGCAACUGAAUGAAAUGGUGAAGGACGGGUCCAGGUGUGGCUGCUUCGGCAGUGCAGCUUGUUGAGUAGAGUGUGAGCUCCGUAACUAGUCGCGUC
modifications: listed as RNA, chemistry not given here
percentage folded ([3]; 25 °C, in the presence of the tRNA (tRNA^Lys3 scaffold)): 50±3.9% | percentage folded ([3]; 25 °C, no tRNA scaffold): 32±4.2% | percentage folded ([3]; 37 °C, in the presence of the tRNA (tRNA^Lys3 scaffold)): 24±2.4% | percentage folded ([3]; 37 °C, no tRNA scaffold): 13±2.8% | fluorescence when fused to the CGG repeat-containing RNA [4]: essentially nonfluorescent | brightness of flanked RNA relative to the same aptamer alone ([4]; flanked by 50 nt of RNA on both 5′ and 3′ ends, 0.1 μM RNA): 20% | Percent Brightness (at 42° C.) [4]: 19% | Relative Brightness (at 25° C.) ([4]; 25 °C): 1.0 | melting temperature (Tm) [5]: 34±0.6 °C

B2: Spinach1.2: Spinach mutant with perfect complementarity in stem 1 and stem loop 3, SEQ ID NO: 31 (nucleic acid)
chain: GACGCGACCGAATGAAATGGTGAAGGACGGGTCCAGCCGGCTGCTTCGGCAGCCGGCTTGTTGAGTAGAGTGTGAGCTCCGTAACTGGTCGCGTC
modifications: listed as DNA, chemistry not given here
percentage folded ([3]; 25 °C, no tRNA scaffold): 27±2.1% | percentage folded ([3]; 37 °C, no tRNA scaffold): 16±2.3% | dimmer than Spinach ([4]; 1 μM RNA, 10 μM DFHBI, 25 °C): 16% | Percent Brightness (at 42° C.) [4]: 41% | Relative Brightness (at 25° C.) ([4]; 25 °C): 0.8 | melting temperature (Tm) [5]: 38±0.3 °C

B3: Spinach1.1: Spinach mutant with perfect complementarity in stem 1, SEQ ID NO: 30 (nucleic acid)
chain: GACGCGACCGAATGAAATGGTGAAGGACGGGTCCAGGTGTGGCTGCTTCGGCAGTGCAGCTTGTTGAGTAGAGTGTGAGCTCCGTAACTGGTCGCGTC
modifications: listed as DNA, chemistry not given here
brightness compared to Spinach ([4]; 1 μM RNA, 10 μM DFHBI, 25 °C): as bright as Spinach | melting temperature (Tm) [5]: 35±0.5 °C

Reference: patent publication US9664676B2, “RNA sequences that induce fluorescence of small molecule fluorophores” (Cornell University, priority 2013, dated 2017)
